# US20240383982A1 (Genmab, published 2024)
# T1: pig (Sus scrofa) B7H4, full length, on HEK-293F cells (pig, UniProt Q7Z7D3 26-282 (human entry))
# T1 construct: Uniprot F1SAY4; also called pig B7H4
# T1 chain: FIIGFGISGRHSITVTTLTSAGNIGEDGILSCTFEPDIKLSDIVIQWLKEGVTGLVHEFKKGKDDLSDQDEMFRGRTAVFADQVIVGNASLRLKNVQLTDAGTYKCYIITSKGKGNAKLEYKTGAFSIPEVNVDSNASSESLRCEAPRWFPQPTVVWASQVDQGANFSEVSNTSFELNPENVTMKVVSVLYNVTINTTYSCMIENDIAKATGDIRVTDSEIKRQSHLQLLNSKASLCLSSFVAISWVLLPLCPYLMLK
# T2: human B7H4, full length, on cells (human, UniProt Q7Z7D3 25-282)
# T2 construct: Uniprot Q7Z7D3; Used for transfected HEK cells and for the B7H4-expressing human tumor cell lines (endogenous B7H4); also called VTCN1
# T2 sequence: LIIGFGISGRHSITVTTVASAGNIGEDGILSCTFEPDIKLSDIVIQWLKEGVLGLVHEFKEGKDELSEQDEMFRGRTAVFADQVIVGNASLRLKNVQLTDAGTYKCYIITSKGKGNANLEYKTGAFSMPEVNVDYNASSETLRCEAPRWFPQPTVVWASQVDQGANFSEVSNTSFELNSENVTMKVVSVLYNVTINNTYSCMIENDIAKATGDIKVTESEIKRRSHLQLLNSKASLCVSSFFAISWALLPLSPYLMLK
# T3: human recombinant His tagged B7H4 protein (Sino Biological cat. no. 10738-H08H) (human, UniProt Q7Z7D3 29-258)
# T3 construct: Bought protein; theoretical mass 26.8 kDa; also called human B7H4; human B7H4 extracellular domain
# T3 sequence: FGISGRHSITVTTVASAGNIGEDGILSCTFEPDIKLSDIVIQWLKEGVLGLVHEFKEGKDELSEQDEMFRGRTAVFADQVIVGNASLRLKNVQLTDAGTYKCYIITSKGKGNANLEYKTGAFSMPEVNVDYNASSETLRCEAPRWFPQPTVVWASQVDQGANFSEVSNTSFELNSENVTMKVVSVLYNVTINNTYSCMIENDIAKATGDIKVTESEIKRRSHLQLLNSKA
# T4: mouse B7H4 ECD-His (R&D Systems, cat. no. 2154-B7-050) (mouse, UniProt Q7TSP5 29-256)
# T4 construct: Bought ECD-His protein (26.6 kDa); also called mouse B7H4 extracellular domain
# T4 sequence: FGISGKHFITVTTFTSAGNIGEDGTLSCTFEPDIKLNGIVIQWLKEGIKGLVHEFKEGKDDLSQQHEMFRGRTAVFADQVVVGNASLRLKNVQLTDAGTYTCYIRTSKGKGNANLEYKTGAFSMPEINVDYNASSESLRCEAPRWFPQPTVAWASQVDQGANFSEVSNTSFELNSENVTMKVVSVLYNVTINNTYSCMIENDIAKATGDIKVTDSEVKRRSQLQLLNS
# Columns and labels:
# [1] = target: T1, pig (Sus scrofa) B7H4, full length, on …; experiment: flow cytometry, HEK-293F cells transiently transfected with pig B7H4 [panel Pig B7H4]
# Protocol: (§1) Cells (3×10⁴ cells/well) were incubated in polystyrene 96-well round-bottom plates (Greiner bio-one, cat. no. 650180) with serial dilutions of antibodies (ranging from 0.000458 to 30 μg/mL in 4-fold dilution steps) in 100 μL PBS/0.1% BSA/0.02% azide (staining buffer) at 4° C. for 30 min. Experiments were performed in technical duplicate. After washing twice in staining buffer, cells were incubated in 50 μL secondary antibody at 4° C. for 30 min. As a secondary antibody, R-Phycoerythrin (PE)-conjugated goat-anti-human IgG F(ab′)₂ (1:500 in FACS buffer; Jackson ImmunoResearch Laboratories, Inc., West Grove, PA, cat. no. 109-116-098), was used. Cells were washed twice in staining buffer, re-suspended in 30 μL FACS buffer containing Topro-3 (1:10,000 dilution) and analyzed on an iQue Screener (Intellicyt Corporation, USA). Binding curves were analyzed using non-linear regression (sigmoidal dose-response with variable slope) using GraphPad Prism V7.02 software (GraphPad Software, San Diego, CA, USA).
# [2] = target: T2, human B7H4, full length, on cells; experiment: flow cytometry on HCC1954 tumor cells [HCC1954 right panel]
# Protocol: as §1
# (§2) Binding was analyzed by flow cytometry as described above.
# [3] = target: T3, human recombinant His tagged B7H4 …; experiment: BLI (Octet HTX); antibody on anti-human IgG Fc capture sensor, human B7H4 ECD-His in solution; 2nd experiment (average of n = 3)
# Protocol: (§3) Target binding affinity of B7H4 antibodies was determined by label-free biolayer interferometry (BLI) on an Octet HTX instrument (FortéBio). Experiments were carried out while shaking at 1,000 RPM at 30° C. […] Anti-Human IgG Fc Capture (AHC) biosensors (FortéBio, cat. no. 18-5060) were pre-conditioned by exposure to 10 mM glycine (Sigma-Aldrich, cat. no. 15527) buffer pH 1.7 for 5 s, followed by neutralization in Sample Diluent (FortéBio, cat. no. 18-1048) for 5 s; both steps were repeated 2 times. Next, AHC sensors were loaded with antibody (1 μg/mL in Sample diluent) for 600 s. […] The theoretical molecular mass of human B7H4 and mouse B7H4 (as ECD-His tagged molecules) based on their amino acid sequences (26.8 kDa and 26.6 kDa respectively) were used for calculations. For each antibody a reference sensor was used, which was incubated with Sample Diluent instead of antigen. AHC sensors were regenerated by exposure to 10 mM glycine buffer pH 1.7 for 5 s, followed by neutralization in Sample Diluent for 5 s; both steps were repeated twice. Subsequently sensors were loaded again with antibody for the next cycle of kinetics measurements.
# (§4) Data were acquired using Data Acquisition Software v9.0.0.49d (FortéBio) and analyzed with Data Analysis Software v9.0.0.12 (FortéBio). Data traces were corrected per antibody by subtraction of the reference sensor. The Y-axis was aligned to the last 10 s of the baseline, Interstep Correction alignment to dissociation and Savitzky-Golay filtering were applied. Data traces with a response<0.05 nm were excluded from analysis. The data was fitted with the 1:1 Global Full fit model using a window of interest for the association and dissociation times set at 300 s and 200 s respectively.
# [4] = target: T2, human B7H4, full length, on cells; experiment: flow cytometry on MDA-MB-468 tumor cells [panel MDA-MB-468]
# Protocol: as §1, §2
# [5] = target: T4, mouse B7H4 ECD-His (R&D Systems, cat. …); experiment: BLI (Octet HTX); antibody on anti-human IgG Fc capture sensor, mouse B7H4 ECD-His in solution; 2nd experiment
# Protocol: as §3, §4
binder,measurement,setting,value
"bsIgG1-huCD3-H101G-FEALxB7H4-C1-N52S-FEAR (bispecific antibody, also called bslgG1-huCD3-H101G-FEALxB7H4-C1-N52S-FEAR; BslgG1-huCD3-H101G-FEALxB7H4-C1-N52S-FEAR) heavy 1: not shown light 1: not shown heavy 2: QVQLQQWGAGLLKPSETLSLTCAVYGGSFSGYYWSWIRQPPGKGLEWIGEISHSGSTNYNPSLKSRVTISIDTSKNQFSLKLTSVTAADTAVFYCARGLFNWNFDSWGQGTLVTVSSASTKGPSVFPLAPSSKSTSGGTAALGCLVKDYFPEPVTVSWNSGALTSGVHTFPAVLQSSGLYSLSSVVTVPSSSLGTQTYICNVNHKPSNTKVDKRVEPKSCDKTHTCPPCPAPEFEGGPSVFLFPPKPKDTLMISRTPEVTCVVVAVSHEDPEVKFNWYVDGVEVHNAKTKPREEQYNSTYRVVSVLTVLHQDWLNGKEYKCKVSNKALPAPIEKTISKAKGQPREPQVYTLPPSREEMTKNQVSLTCLVKGFYPSDIAVEWESNGQPENNYKTTPPVLDSDGSFFLYSRLTVDKSRWQQGNVFSCSVMHEALHNHYTQKSLSLSPGK light 2: DIQMTQSPSSLSASVGDRVTITCRASQGIRNDLGWYQQKPGKAPKRLIYGASSLQSGVPSRFSGSGSGTEFTLTISSLQPEDFATYYCLQHNSYPRTFGQGTTVEIKRTVAAPSVFIFPPSDEQLKSGTASVVCLLNNFYPREAKVQWKVDNALQSGNSQESVTEQDSKDSTYSLSSTLTLSKADYEKHKVYACEVTHQGLSSPVTKSFNRGEC",binding result,[1],no binding (tested: 30 µg/ml)
same,EC50 (read off the curve),[2],~1 µg/mL
"IgG1-B7H4-C1-N52S-FEAR (antibody, V domains shown, Full length human IgG1 with L234F, L235E, D265A, K409R (FEAR) heavy chain constant region and kappa light chain; bivalent, monospecific; also called IgG1-B7H4-C1-052S-FEAR) VH: QVQLQQWGAGLLKPSETLSLTCAVYGGSFSGYYWSWIRQPPGKGLEWIGEISHSGSTNYNPSLKSRVTISIDTSKNQFSLKLTSVTAADTAVFYCARGLFNWNFDSWGQGTLVTVSS VL: DIQMTQSPSSLSASVGDRVTITCRASQGIRNDLGWYQQKPGKAPKRLIYGASSLQSGVPSRFSGSGSGTEFTLTISSLQPEDFATYYCLQHNSYPRTFGQGTTVEIKR",Kd,[3],57 nM
same,koff,[3],0.0047 s⁻¹
same,kon,[3],84000 M⁻¹ s⁻¹
same,EC50 (read off the curve),[4],~1 µg/mL
"IgG1-B7H4-C5-FEAR (antibody, V domains shown, Full length IgG1 FEAR, kappa; variable domains from US20190085080A1) VH: QLQLQESGPGLVKPSETLSLTCTVSGGSIKSGSYYWGWIRQPPGKGLEWIGNIYYSGSTYYNPSLRSRVTISVDTSKNQFSLKLSSVTAADTAVYYCAREGSYPNQFDPWGQGTLVTVSS VL: EIVMTQSPATLSVSPGERATLSCRASQSVSSNLAWYQQKPGQAPRLLIYGASTRATGIPARFSGSGSGTEFTLTISSLQSEDFAVYYCQQYHSFPFTFGGGTKVEIKR",Kd,[5],14 nM
same,koff,[5],0.0024 s⁻¹
same,kon,[5],170000 M⁻¹ s⁻¹
